T1: 2× MBP-BRCA2OB2-His10 (human, UniProt P51587 2780-3080)
T1 sequence: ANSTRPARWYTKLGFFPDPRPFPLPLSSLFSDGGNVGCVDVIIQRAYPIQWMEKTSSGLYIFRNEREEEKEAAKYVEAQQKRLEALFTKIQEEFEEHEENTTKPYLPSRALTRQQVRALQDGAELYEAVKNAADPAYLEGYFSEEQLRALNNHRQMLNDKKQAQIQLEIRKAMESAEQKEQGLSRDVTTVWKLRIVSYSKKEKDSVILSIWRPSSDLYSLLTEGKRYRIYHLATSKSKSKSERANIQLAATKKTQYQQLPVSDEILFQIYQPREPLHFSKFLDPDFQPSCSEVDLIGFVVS

B1: GST-BRCA2N9 (domain or fragment)
chain: ILAVKQAISGTSPVASSFQGIKKSIFRIRESPKETFNASFSGHMTDPNFKKETEASESGLEIHTVCSQKEDSLCPNLIDNGSWPATTTQNSVALKNAGLISTLKKKTNKFIYAIHDETSYKGKKIPKDQKSELINCSAQFEANAFEAPLTFANADSGLLHSSVKRSCSQNDSEEPTLSLTSSFGTILRKCSRNETCSNNTVISQDLDYKEAKCNKEKLQLFITPEADSLSCLQE
B2: GST-BRCA2NT-HA-His10 (domain or fragment)
chain: MPIGSKERPTFFEIFKTRCNKADLGPISLNWFEELSSEAPPYNSEPAEESEHKNNNYEPNLFKTPQRKPSYNQLASTPIIFKEQGLTLPLYQSPVKELDKFKLDLGRNVPNSRHKSLRTVKTKMDQADDVSCPLLNSCLSESPVVLQCTHVTPQRDKSVVCGSLFHTPKFVKGRQTPKHISESLGAEVDPDMSWSSSLATPPTLSSTVLIVRNEEASETVFPHDTTANVKSYFSNHDESLKKNDRFIASVTDSENTNQREAASHGFGKTSGNSFKVNSCKDHIGKSMPNVLEDEVYETVVDTSEEDSFSLCFSKCRTKNLQKVRTSKTRKKIFHEANADECEKSKNQVKEKYSFVSEVEPNDTDPLDSNVANQKPFESGSDKISKEVVPSLACEWSQLTLSGLNGAQMEKIPLLHISSCDQNISEKDLLDTENKRKKDFLTSENSLPRISSLPKSEKPLNEETVVNKRDEEQHLESHTDCILAVKQAISGTSPVASSFQGIKKSIFRIRESPKETFNASFSGHMTDPNFKKETEASESGLEIHTVCSQKEDSLCPNLIDNGSWPATTTQNSVALKNAGLISTLKKKTNKFIYAIHDETSYKGKKIPKDQKSELINCSAQFEANAFEAPLTFANADSGLLHSSVKRSCSQNDSEEPTLSLTSSFGTILRKCSRNETCSNNTVISQDLDYKEAKCNKEKLQLFITPEADSLSCLQE
B3: 2× MBP-BRCA2CT-FLAG-His10 (domain or fragment)
chain: QEKSLKASKSTPDGTIKDRRLFMHHVSLEPITCVPFRTTKERQEIQNPNFTAPGQEFLSKSHLYEHLTLEKSSSNLAVSGHPFYQVSATRNEKMRHLITTGRPTKVFVPPFKTKSHFHRVEQCVRNINLEENRQKQNIDGHGSDDSKNKINDNEIHQFNKNNSNQAVAVTFTKCEEEPLDLITSLQNARDIQDMRIKKKQRQRVFPQPGSLYLAKTSTLPRISLKAAVGGQVPSACSHKQLYTYGVSKHCIKINSKNAESFQFHTEDYFGKESLWTGKGIQLADGGWLIPSNDGKAGKEEFYRALCDTPGVDPKLISRIWVYNHYRWIIWKLAAMECAFPKEFANRCLSPERVLLQLKYRYDTEIDRSRRSAIKKIMERDDTAAKTLVLCVSDIISLSANISETSSNKTSSADTQKVAIIELTDGWYAVKAQLDPPLLAVLKNGRLTVGQKIILHGAELVGSPDACTPLEAPESLMLKISANSTRPARWYTKLGFFPDPRPFPLPLSSLFSDGGNVGCVDVIIQRAYPIQWMEKTSSGLYIFRNEREEEKEAAKYVEAQQKRLEALFTKIQEEFEEHEENTTKPYLPSRALTRQQVRALQDGAELYEAVKNAADPAYLEGYFSEEQLRALNNHRQMLNDKKQAQIQLEIRKAMESAEQKEQGLSRDVTTVWKLRIVSYSKKEKDSVILSIWRPSSDLYSLLTEGKRYRIYHLATSKSKSKSERANIQLAATKKTQYQQLPVSDEILFQIYQPREPLHFSKFLDPDFQPSCSEVDLIGFVVSVVKKTGLAPFVYLSDECYNLLAIKFWIDLNEDIIKPHMLIAASNLQWRPESKSGLLTLFAGDFSVFSASPKEGHFQETFNKMKNTVENIDILCNEAENKLMHILHANDPKWSTPTKDCTSGPYTAQIIPGTGNKLLMSSPNCEIYYQSPLSLCMAKRKSVSTPVSAQMTSKSCKGEKEIDDQKNCKKRRALDFLSRLPLPPPVSPICTFVSPAAQKAFQPPRSCGTKYETPIKKKELNSPQMTPFKKFNEISLLESNSIADEELALINTQALLSGSTGEKQFISVSESTRTAPTSSEDYLRLKRRCTTSLIKEQESSQASTEECEKNKQDTITTKKYI
B4: 2× MBP-BRCA2NT-FLAG-His10 (domain or fragment)
chain: B2 chain
B5: GST-BRCA2N7 (domain or fragment)
chain: VTDSENTNQREAASHGFGKTSGNSFKVNSCKDHIGKSMPNVLEDEVYETVVDTSEEDSFSLCFSKCRTKNLQKVRTSKTRKKIFHEANADECEKSKNQVKEKYSFVSEVEPNDTDPLDSNV

Columns and labels:
Test in all cases: pull-down
2× MBP-BRCA2OB2-His10 = biological target: T1, 2× MBP-BRCA2OB2-His10
[1] = biological target: B4
[2] = biological target: B3
GST-BRCA2NT-HA-His10 = biological target: B2

B1: binds (2× MBP-BRCA2OB2-His10); binds [1].

B2: binds [2].

B3 was tested, and the “fold stronger than the interaction of MBP-BRCA2NT with GST-BRCA2NT” value (GST-BRCA2NT-HA-His10) was about 6 fold.

B4: binds (GST-BRCA2NT-HA-His10).

B5: binds [1].

From PMC7641332 (Nucleic Acids Research, 2020)
